The text below walks through data of paper PMC4148453.

Values joined by “and” are separate entries in the source; they are usually repeats but may differ in a detail not shown here. Equal entries are not always repeated.

Assay in all cases: EMSA
Common to all, as to details: 10 mM Tris-Cl pH 8.0, 1 mM DTT, 10% glycerol, 5 mM MgCl2, 10 mM KCl, with 50 mM acetyl phosphate when indicated; EMSA 30 min at 37 C; footprint at room …
On the technique in general: In EMSA bound probe runs differently from free probe, usually more slowly.

In series [1] the test system is 6His-BfmR (Pseudomonas aeruginosa MPAO1).
Series [2] deals with 6His-BfmR D55A (Pseudomonas aeruginosa MPAO1).
The test system of series [3] is 6His-BfmR (Pseudomonas aeruginosa MPAO1). This is another data set of the same source.

As a reminder, the Kd is the constant that tells how readily two partners part at equilibrium. The low end stands for higher affinity, the high end for lower affinity. Turning to bfmR promoter, the Kd in series [1] is below 400 nM; in series [2], above 600 nM; in series [3], 200 nM and > 600 nM.
